# Experimental data reported in publication PMC2917178 (Biochemistry, 2010).
# Several values for one entry are separate records, joined by “and”; a condition that tells them apart may be missing. Equal entries are not always repeated.
# Experiments:
# [1] = molecular target: Rtt109 D288N (with Vps75) (Saccharomyces cerevisiae, UniProt P53853+Q07794, D288N); assay type: biochemical, yeast (Saccharomyces cerevisiae)
# [2] = molecular target: Rtt109 D287N (with Vps75) (Saccharomyces cerevisiae, UniProt P53853+Q07794, D287N); assay type: biochemical, yeast (Saccharomyces cerevisiae); conditions: H3 peptide saturation
# [3] = molecular target: T1, Rtt109 D287A/D288A (with Vps75) (Saccharomyces cerevisiae, UniProt P53853+Q07794, D287A/D288A); assay type: biochemical, yeast (Saccharomyces cerevisiae)
# [4] = molecular target: T1, Rtt109 D287A/D288A (with Vps75); assay type: biochemical, yeast (Saccharomyces cerevisiae); conditions: H3 peptide saturation
# Esa1 = conditions: E338Q vs wildtype Esa1, ref [35]; cited from earlier work
# Rtt109 D288N (with Vps75), sequence (P53853 whole entry, one chain of several): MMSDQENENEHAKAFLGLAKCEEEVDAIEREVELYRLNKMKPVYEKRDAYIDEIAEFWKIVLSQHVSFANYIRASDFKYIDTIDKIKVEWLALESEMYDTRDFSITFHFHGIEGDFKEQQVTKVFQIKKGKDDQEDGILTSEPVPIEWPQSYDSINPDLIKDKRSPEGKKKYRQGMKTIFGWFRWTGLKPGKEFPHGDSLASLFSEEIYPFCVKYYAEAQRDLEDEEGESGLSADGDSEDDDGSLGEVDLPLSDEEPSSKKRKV
# T1 sequence (P53853 whole entry, one chain of several): as above
# Rtt109 D287N (with Vps75), sequence (P53853 whole entry, one chain of several): as above
molecule,measurement,setting,value
"D288N: single point mutant of Rtt109 (protein, UniProt Q07794 1-436, looked up, variant D288N) Histone acetyltransferase …: MSLNDFLSSVLPVSEQFEYLSLQSIPLETHAVVTPNKDDKRVPKSTIKTQHFFSLFHQGKVFFSLEVYVYVTLWDEADAERLIFVSKADTNGYCNTRVSVRDITKIILEFILSIDPNYYLQKVKPAIRSYKKISPELISAASTPARTLRILARRLKQSGSTVLKEIESPRFQQDLYLSFTCPREILTKICLFTRPASQYLFPDSSKNSKKHILNGEELMKWWGFILDRLLIECFQNDTQAKLRIPGEDPARVRSYLRGMKYPLWQVGDIFTSKENSLAVYNIPLFPDNPKARFIHQLAEEDRLLKVSLSSFWIELQERQEFKLSVTSSVMGISGYSLATPSLFPSSADVIVPKSRKQFRAIKKYITGEEYDTEEGAIEAFTNIRDFLLLRMATNLQSLTGKREHRERNQPVPASNINTLAITMLKPRKKAKALPKT",decrease in kcat/Km for AcCoA,[1]; AcCoA,1000 fold
same,decrease of kcat/Km for AcCoA versus wildtype,[1]; AcCoA,~3 orders of magnitude
same,increase in Km for AcCoA versus wildtype,[1]; AcCoA saturation,~16 fold
same,decrease of kcat versus wildtype,[1]; H3 peptide saturation,~50 fold and 50-100 fold
"D287N: single point mutant of Rtt109 (protein, UniProt Q07794 1-436, looked up, variant D287N) Histone acetyltransferase …: MSLNDFLSSVLPVSEQFEYLSLQSIPLETHAVVTPNKDDKRVPKSTIKTQHFFSLFHQGKVFFSLEVYVYVTLWDEADAERLIFVSKADTNGYCNTRVSVRDITKIILEFILSIDPNYYLQKVKPAIRSYKKISPELISAASTPARTLRILARRLKQSGSTVLKEIESPRFQQDLYLSFTCPREILTKICLFTRPASQYLFPDSSKNSKKHILNGEELMKWWGFILDRLLIECFQNDTQAKLRIPGEDPARVRSYLRGMKYPLWQVGDIFTSKENSLAVYNIPLFPNDPKARFIHQLAEEDRLLKVSLSSFWIELQERQEFKLSVTSSVMGISGYSLATPSLFPSSADVIVPKSRKQFRAIKKYITGEEYDTEEGAIEAFTNIRDFLLLRMATNLQSLTGKREHRERNQPVPASNINTLAITMLKPRKKAKALPKT",decrease in activity (kcat) versus wildtype,[2],~10 fold
"D287A/D288A: double point mutant of Rtt109 (protein, UniProt Q07794 1-436, looked up, variant D287A D288A) Histone acetyltransferase …: MSLNDFLSSVLPVSEQFEYLSLQSIPLETHAVVTPNKDDKRVPKSTIKTQHFFSLFHQGKVFFSLEVYVYVTLWDEADAERLIFVSKADTNGYCNTRVSVRDITKIILEFILSIDPNYYLQKVKPAIRSYKKISPELISAASTPARTLRILARRLKQSGSTVLKEIESPRFQQDLYLSFTCPREILTKICLFTRPASQYLFPDSSKNSKKHILNGEELMKWWGFILDRLLIECFQNDTQAKLRIPGEDPARVRSYLRGMKYPLWQVGDIFTSKENSLAVYNIPLFPAAPKARFIHQLAEEDRLLKVSLSSFWIELQERQEFKLSVTSSVMGISGYSLATPSLFPSSADVIVPKSRKQFRAIKKYITGEEYDTEEGAIEAFTNIRDFLLLRMATNLQSLTGKREHRERNQPVPASNINTLAITMLKPRKKAKALPKT",downward shift of apparent pKa versus wildtype,[3]; D287A/D288A kcat pH profile,~1 pH unit
same,pKa from kcat pH profile,"[3]; D287A/D288A, ATE buffer, pH 7-9, 25 °C, 400 μM H3 peptide, 60 μM AcCoA, twice in duplicate, Eq. 11",7.5 ± 0.1
same,decrease of kcat versus wildtype,[4],~100 fold and 50-100 fold
"E338Q: Esa1 with mutation of the general base catalyst Glu-338 (protein, UniProt Q08649 1-445, looked up, variant E338Q) Histone acetyltransferase ESA1: MSHDGKEEPGIAKKINSVDDIIIKCQCWVQKNDEERLAEILSINTRKAPPKFYVHYVNYNKRLDEWITTDRINLDKEVLYPKLKATDEDNKKQKKKKATNTSETPQDSLQDGVDGFSRENTDVMDLDNLNVQGIKDENISHEDEIKKLRTSGSMTQNPHEVARVRNLNRIIMGKYEIEPWYFSPYPIELTDEDFIYIDDFTLQYFGSKKQYERYRKKCTLRHPPGNEIYRDDYVSFFEIDGRKQRTWCRNLCLLSKLFLDHKTLYYDVDPFLFYCMTRRDELGHHLVGYFSKEKESADGYNVACILTLPQYQRMGYGKLLIEFSYELSKKENKVGSPQKPLSDLGLLSYRAYWSDTLITLLVEHQKEITIDEISSMTSMTTTDILHTAKTLNILRYYKGQHIIFLNEDILDRYNRLKAKKRRTIDPNRLIWKPPVFTASQLRFAW",upward shift of pKa of ionizable group,Esa1,1.4 pH-units
